The source of these data is patent US10006080B2, “High-selectivity contact activation inhibitor based on infestin-4” (OBSCHESTVO S OGRANICHENNOY OTVETSTVENNOSTYU …, priority 2013, dated 2018).

No end group written: not given here.

The target in test [1] is fXa (Homo sapiens, UniProt P00742). To be noted: Campos et al. 2004, FEBS Lett. 577:512-516; read-out: inhibition constant Ki against fXa; cited from earlier work.
The test system of a further test is fXIIa. To be noted: without affecting hemostasis parameters; cited from earlier work.
Test [2] deals with contact-activated coagulation. Put plainly: APTT test in platelet free plasma of a healthy donor (kaolin-cephalin activation). The following applies: 10 μM inhibitor in PFP; 45 sec without inhibitor. The class given is biochemical, human. The procedure: The assessment of activity of the polypeptide comprising the sequence of an infestin-4 mutant MutB by its inhibition of the contact-activated coagulation shall be considered further with a reference to FIG. 1. Native infestin-4 and mutants MutB and Mut15 were added into 3 separate samples of platelet free plasma (PFP) of a healthy donor, with subsequent measuring time of contact-activated clotting in the APTT test.
Blood plasma from healthy donors was processed according to standard protocols of blood collection for coagulation assays (Collection, Transport, and Processing of Blood Specimens for Testing Plasma-Based Coagulation Assays and Molecular Hemostasis Assays; Approved Guideline Fifth Edition by Clinical and Laboratory Standards Institute (CLSI) H21-A5 Vol. 28 No. 5). 0.38% sodium citrate was added into blood to block the calcium ions.
The APTT test was administered using the reagent kits “Coagulo-test” (Scientific-production association Renam, Moscow, Russia) and different concentrations of the following contact activation inhibitors: native infestin-4, MutB, and Mut15. To do that, 50 microliters of blood plasma from a healthy donor were mixed with 5.6 microliters of a 10× solution of different inhibitor concentrations and incubated for 15 minutes at 37° C. Then, according to the “Coagulo-test” manual, 25 microliters of the mixture were transferred into the cuvette of the coagulometer Helena-C2, with addition of 25 microliters of kaolin-cephalin mixture activating fXII in blood plasma. After incubation at 37° C. for 3 minutes, 25 microliters of the calcium chloride solution in the initial concentration of 25 mM was added, and the time of fibrin clot formation in the coagulometer cuvette was determined photometrically.
APTT dependences on concentrations of native infestin-4, MutB and Mut15 obtained in the same way as in Example 1, are shown on FIG. 1.

For another test, the target named is T1, fXIa (Homo sapiens, UniProt P03951).
T1 construct: factor XI into its active form, factor XIa (fXIa)
Description: Chromogenic test of protease inhibition in buffer, fXIa (substrate S-2366). The class given is biochemical. To be noted: buffer solution, summary of Table 2. The procedure: In order to assess selectivity of the fXIIa inhibition by the polypeptide comprising the sequence of the infestin-4 mutant MutB, its inhibitory activity in buffer solution against the purified coagulation factors was determined. The polypeptide's activity was compared with the known fXIIa inhibitors: CTI, infestin-4, infestin-4-based mutant Mut15, LCTI-III. […] The standard deviation amounted to about 50% of the average value; each value was measured by performing 2-3 repeats.
(§1) To determine the inhibition activity of such proteins as MutB, CTI, Inf4, Mut15, and LCTI-III as related to different coagulation proteases in a buffer, the chromogenic test was used: the mixture of protease and inhibitor was incubated in the wells of the plate for 15 minutes at 37° C., after which the chromogenic substrate solution was added to the mixture, and the protease activity was measured as the rate of chromogenic product formation at 37° C.
(§2) Chromogenic substrates included a p-nitroanilide group cleaved by the corresponding proteases. After cleavage of the p-nitroanilide group from the substrate molecule, the group absorption spectrum changes, and the change of concentration of such product within time can be detected at the light wavelength of 405 nm using a plate spectrophotometer. To build a dependence curve of the protease activity from the inhibitor concentration, different inhibitor concentrations were added into several samples with the same protease concentration. After that, the inhibitor concentration able to decrease the protease activity by 50% (IC50) was determined. The inhibition constant Ki was calculated using the Cheng-Prusoff equation (Ki=IC50/(1+S/KM)), where S is the initial substrate concentration, KM is the Michaelis-Menten constant of the substrate to the protease.
Native infestin-4 and its mutants MutB and Mut15 used here were fusion proteins with thioredoxin I E. coli containing polyhisticline clusters. […]

In test [3] the target is T2, fXa (UniProt P00742 41-179; P00742 235-488, limits assumed).
T2 construct: also called factor Xa
Put plainly: chromogenic test (S-2765), IC50 converted by Cheng-Prusoff. The procedure: as §1, §2

The target in a further test is T3, factor XIIa (UniProt P00748 20-615, limits assumed).
T3 construct: also called fXIIa
T3 sequence (looked up): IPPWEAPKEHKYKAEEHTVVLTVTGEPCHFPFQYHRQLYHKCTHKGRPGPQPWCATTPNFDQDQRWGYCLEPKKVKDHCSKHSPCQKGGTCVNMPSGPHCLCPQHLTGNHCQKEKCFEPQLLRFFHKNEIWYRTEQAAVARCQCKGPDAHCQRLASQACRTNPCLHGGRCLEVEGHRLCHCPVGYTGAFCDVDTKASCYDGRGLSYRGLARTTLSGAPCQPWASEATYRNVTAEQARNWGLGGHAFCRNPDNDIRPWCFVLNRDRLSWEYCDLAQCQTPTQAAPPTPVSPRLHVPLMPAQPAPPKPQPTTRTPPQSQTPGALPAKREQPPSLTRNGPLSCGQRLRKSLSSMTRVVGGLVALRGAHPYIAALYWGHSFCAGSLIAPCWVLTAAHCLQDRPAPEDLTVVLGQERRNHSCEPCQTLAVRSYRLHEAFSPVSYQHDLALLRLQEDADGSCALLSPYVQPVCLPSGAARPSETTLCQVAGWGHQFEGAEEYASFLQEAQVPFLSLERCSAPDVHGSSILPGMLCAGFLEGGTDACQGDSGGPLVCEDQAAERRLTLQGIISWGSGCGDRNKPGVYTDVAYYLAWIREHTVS
Description: chromogenic test (S-2302), IC50 converted by Cheng-Prusoff. The procedure: as §1, §2

Another test deals with T4, factor XIa (UniProt P03951 19-625).
T4 construct: also called fXIa
Put plainly: chromogenic test (S-2366), IC50 converted by Cheng-Prusoff. Here is the method: as §1, §2

As usually defined, the Ki is the dissociation constant of the complex between target and ligand, obtained from inhibition or displacement.

Chain of fXa (Homo sapiens, UniProt P00742) (P00742 235-488 limits assumed): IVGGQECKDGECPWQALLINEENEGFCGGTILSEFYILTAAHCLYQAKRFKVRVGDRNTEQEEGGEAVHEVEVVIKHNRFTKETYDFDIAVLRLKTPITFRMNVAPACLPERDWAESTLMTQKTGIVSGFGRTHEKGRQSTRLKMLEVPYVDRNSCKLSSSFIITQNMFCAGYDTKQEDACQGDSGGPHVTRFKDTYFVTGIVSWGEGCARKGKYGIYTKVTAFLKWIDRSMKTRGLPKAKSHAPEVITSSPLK
Chain of fXa (Homo sapiens, UniProt P00742) (P00742 41-179 partner limits assumed): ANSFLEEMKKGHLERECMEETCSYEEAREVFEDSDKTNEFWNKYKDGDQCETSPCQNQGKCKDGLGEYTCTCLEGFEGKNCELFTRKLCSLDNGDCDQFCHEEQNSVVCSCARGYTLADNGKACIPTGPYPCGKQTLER
T2 sequence (P00742 41-179 limits assumed, form in doubt, chain 1 of 2): as the sequence (P00742 41-179 partner limits assumed) above
T2 sequence (P00742 235-488 limits assumed, form in doubt, chain 2 of 2): as the sequence (P00742 235-488 limits assumed) above

For “Inf4: domain 4 of the protein infestin from the midgut of Triatoma infestans, Kazal-type fXIIa inhibitor; PDB 2ERW (EVRNPCACFRNYVPVCGSDGKTYGNPCMLNCAAQTKVPGLKLVHEGRCQRSNVEQF; left off: large carriers; small tags and cut ends) [reference compound]”, the inhibition constant Ki with fXa [1] is 53 nM. In the test on fXIIa, the “effect in the thrombosis model in vivo” value was “prevents vascular occlusion”. In addition, the APTT in test [2] worked out at 120 s. Also, the “inhibition of fXIa (in words)” value with fXIa is given as “do not inhibit”.

B1: native infestin-4, fusion protein with thioredoxin I E. coli containing polyhistidine clusters (other)
chain: EVRNPCACFRNYVPVCGSDGKTYGNPCMLNCAAQTKVPGLKLVHEGRCQRSNVEQF
notes: It says MutB differs from it at positions 9, 12 and 14 only; also called Inf4; not shown: thioredoxin I of E. coli, fusion partner; polyhistidine clusters
B1: the inhibition constant (Ki) is 2000 nM in the test with fXa [3] and 1 nM with factor XIIa.

B2: infestin-4 mutant MutB, fusion protein with thioredoxin I E. coli containing polyhistidine clusters (other, not shown: large carriers; small tags and cut ends)
chain: EVRNPCACTRNFVAVCGSDGKTYGNPCMLNCAAQTKVPGLKLVHEGRCQRSNVEQF
modifications: cysteine pairing not given here; also: fusion with thioredoxin I and polyhistidine clusters, not given here
In the case of B2, in the test with factor XIIa, the Ki came to 1 nM.

B3: Luffa cylindrica trypsin inhibitor, LCTI-III (peptide)
peptide: RICPRILMECSSDSDCLAECICLENGFCG
notes: Chemically synthesised
Take B3: the Ki with factor XIa was found to be 30000 nM; with factor XIIa it was 15 nM.
